Target: human FcRn (FCGRT heavy chain and B2M light chain) expressed on MDCK-hFcRn cells (human) (UniProt P55899)
Assay: cell-based or functional assay

UniProt P55899, sequence (P55899 24-365, chain 1 of 2): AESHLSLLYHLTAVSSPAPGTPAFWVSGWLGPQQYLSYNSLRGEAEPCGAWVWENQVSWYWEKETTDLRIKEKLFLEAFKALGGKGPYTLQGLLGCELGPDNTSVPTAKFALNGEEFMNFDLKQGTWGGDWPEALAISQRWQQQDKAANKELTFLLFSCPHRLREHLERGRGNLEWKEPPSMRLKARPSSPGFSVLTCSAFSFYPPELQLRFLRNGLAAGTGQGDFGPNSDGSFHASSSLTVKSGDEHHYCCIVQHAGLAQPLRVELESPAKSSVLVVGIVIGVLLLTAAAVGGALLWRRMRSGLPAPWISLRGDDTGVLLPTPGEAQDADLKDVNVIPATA
UniProt P55899, sequence (P61769 21-119, chain 2 of 2, further chain): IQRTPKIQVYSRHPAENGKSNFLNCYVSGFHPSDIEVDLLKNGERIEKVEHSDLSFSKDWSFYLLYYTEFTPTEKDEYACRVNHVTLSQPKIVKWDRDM

Substance	recycling output [ng/mL]
anti-gD HAHQ (antibody)	0.6
anti-gD YTE (antibody)	1.9
